Results as given in patent US20030083294.
Where two headings read alike, the source gives them in different places.

Experiments:
[1] = target: T1, coagulation factor IXa (FIXa) (Homo sapiens) (UniProt P00740+P00740); assay: competition; details: 2'-F pyrimidines, 2'-OH purines; 3-nt 2'-OMe 3' tail; comparable to 9.3t
[2] = target: T2, coagulation factor Xa (FXa) (Homo sapiens) (UniProt P00742+P00742); details: 2'-F pyrimidines, 2'-OH purines; <10% RNA bound at up to 5 uM protein; >5000-fold specificity
[3] = target: coagulation factor XIa (FXIa) (UniProt P03951+P03951); details: 2'-F pyrimidines, 2'-OH purines; <10% RNA bound at up to 5 uM protein; >5000-fold specificity
[4] = target: coagulation factor VIIa (FVIIa) (UniProt P08709+P08709); details: 2'-F pyrimidines, 2'-OH purines; <10% RNA bound at up to 5 uM protein; >5000-fold specificity
[5] = target: activated protein C (APC) (UniProt P04070+P04070); details: 2'-F pyrimidines, 2'-OH purines; <10% RNA bound at up to 5 uM protein; >5000-fold specificity
[6] = target: T1, coagulation factor IXa (FIXa) (Homo sapiens); details: 2'-F pyrimidines, 2'-OH purines; physiologic salt and pH, 37 C
[7] = target: T2, coagulation factor Xa (FXa) (Homo sapiens); details: 2'-F pyrimidines?
[8] = target: T2, coagulation factor Xa (FXa) (Homo sapiens); details: 2'-F pyrimidines?; versus 11F7t; no anticoagulant activity in PT or APTT

Sequence: AUGGGGACUAUACCGCGUAAUGCUGCCUCCCCAUN [9.3t-3NT]
- Kd [1]: < 1.5 nM

Sequence: AUGGGGACUAUACCGCGUAAUGCUGCCUCCCCAUN [9.3t]
- Kd [2]: > 5000 nM
- Kd [3]: > 5000 nM
- Kd [4]: > 5000 nM
- Kd [5]: > 5000 nM
- Kd [6]: 0.6 nM

Sequence: GAGAGCCCCAGCGAGAUAAUACUUGGCCCCGCUCUUN [11F7t]
- Kd [7]: 1.5 nM

Sequence: GAGAGCCCCAGCGAGAUAAUACUUGUACCCGCUCUUN [11F7tM]
- binding signal (fold loss of affinity) [8]: > 1300
